Laboratory results published in patent publication US8092989B2, “Targeting the histone code as a bacterial strategy for selectively modulating gene expression” (Institut Pasteur, priority 2005, dated 2012).

Key:
[1] = system: histone H3 phosphorylation at Ser 10 (H3 pS10); assay: H3 pS10 immunofluorescence in HeLa cells infected with the ospF strain, kinase inhibitors; assay type: cell-based; details: 60 min pretreatment with both U0126 (10 μM) and SB203180 (2.5 μM), infection 30 min
Description: Indirect immunofluorescence detection was performed with anti-phospho-histone H3 S10 polyclonal antibody. […] Cells were left untreated (ns) or infected with the ospF strain for 30 min. IF was performed with anti-H3 methyl K9-pS10 antibody.
Indirect immunofluorescence. Cells were fixed with 3.7% paraformaldehyde in PBS for 10 min, permeabilized with 0.5% Triton-X in PBS. The following antibodies were used: anti-phospho-p42/p44 antibody (Sigma); anti-p42/p44, anti-phospho-histone H3 S10 (Upstate Cell Signaling), anti-acetyl histone H4 (Lys14) (Upstate Biotechnology) antibodies.

^33P-labeled Erk2 = assay: 33P-labeled Erk2 phosphatase assay, steady state kinetics; details: 100 nM phosphatase, pH 8, 30° C., 10 minutes, Michaelis-Menten fit
Description: Preparation of the ^33P-labeled Erk2 kinase substrate. The in vitro phosphorylation of the GST-Erk2 fusion protein was carried out by incubating 500 μg purified GST-Erk2 coupled to beads with 20 μg His6-tagged activated MEK1 (Upstate Cell Signaling) in a kinase buffer (50 mM Tris pH 7.5, 2 mM DTT, 10 mM MgCl2) with 100 μM ATP (γ-3P ATP, 3000 Ci/mmol) for 2 hours at 30° C. The beads were washed 5 times with 30 ml of 1× PBS and eluted in 50 mM Tris pH 8, 10 mM glutathione, and 10% glycerol. The fractions were dialyzed overnight to remove residual ATP in 50 mM Tris pH8, 50 mM NaCl, and 10% glycerol.
In vitro phosphatase assay. […] Therefore, the reaction was initiated by the addition of the phosphatase, incubated for 10 minutes at 30° C. and terminated by adding 200 μl cold 20% trichloroacetic acid. The samples were centrifuged at 10,000×g and 200 μl of the supernatant was mixed with 5 ml of scintillation fluid for taking radioactivity measurements. The product generated (inorganic phosphate) was kept below 5% of the initial substrate concentrations. Reactions containing the Erk2 substrate and buffer without phosphatase was used as a blank for each data point. The data were fitted to the Michaelis-Menten equation using the software Kaleidagraph.
The kinetic parameters were determined by following the production of radioactive inorganic phosphate.

IL-12 = assay: Murine model of pulmonary infection, lung cytokines by ELISA; assay type: in vivo, mice; details: lungs infected with M90T or ospF strain, 24 hours post-infection (FIG. 10)
Description: The cytokine/chemokine network induced upon infection with Shigella flexneri was analyzed by comparing the profiles obtained upon infection with the invasive strain carrying the virulence plasmid (INV+) and the non-invasive, plasmidless strain (INV−). The murine model of pulmonary infection was used since it was the only valid model to analyze the specific host immune response upon Shigella infection. Following infection with INV−, a Th1 type-network (IL-12, IL-18, IFN-γ, CCL9, CCL10, CCL13, and CCL4) was induced. In contrast, a Th2/Tr1 profile (IL-10, CCL1, CCL24 and CCL2) was induced upon infection with INV+. The difference observed was not due to the bacterial dose used for the infection, but was dependent on the presence or absence of the virulence plasmid.
Some of these bacterial effectors are injected within the host cells by a type III secretion apparatus. Use of different bacterial mutants, has highlighted that the bacterial effectors involved in the immunomodulation were effectors secreted by the type III-secretion apparatus. Finally, OspF, a type III-secreted bacterial effector was responsible fore the control of IL-12 production (FIG. 10).

[2] = system: histone H3 purified from calf thymus; assay: In vitro dephosphorylation of histone H3 / H3 tail peptides; assay type: biochemical; details: 2 hours at 30° C., even when enzyme concentration increased 100 fold
Description: (§1) (A) HeLa cells were left untreated (ns) or infected with the WT or the ospF strain at the indicated time. Indirect immunofluorescence detection was performed with anti-phospho-histone H3 S10 polyclonal antibody. (B) HeLa cells were synchronized by a double thymidine block (2 mM thymidine) and left untreated (ns) or infected with the WT or the ospF strain at the indicated time. Immunoblots were probed with anti-H3 phospho S10 (H3 pS10), anti-H3 methyl K9-phospho S10(H3 metK9-pS10), anti-H3 phospho S10. acetyl-K14 (H3 p-S10/Ac-K14), anti Histone H3 polyclonal anti-pp38 and pErk antibodies. (C) HeLa cells were transfected with pRK5myc-OspF vector and treated with 200 nM okadaic acid for 3 hours. IF was performed with anti-myc (red) and anti-H3 methyl K9-pS10 (green) antibodies. […] (D) One micogram of calf-thymus histone (Sigma) was incubated with 300 ng of His-OspF or with 120 U of λ phosphatase for 2 hours at 30° C. Western blot was performed with an anti-metK9-pS10 antibody. (E) One micogram of peptide metK9-S10 was spotted onto a nitrocellulose membrane that was incubated with buffers, 5 μg/ml of OspF, or 2000 U/ml of lambda phosphatase for 2 hours at 30° C. Western blot was performed with an anti-metK9-pS10 antibody. (F) HeLa cells were pretreated for 60 min with either the MEK1 inhibitor U0126 (10 μM) or the p38 inhibitor SB203180 (2.5 μM) or both. […]

phospho JNK1 Histidine = biological target: T1, phospho JNK1 Histidine (Homo sapiens, UniProt P45983); assay: In vitro phosphatase assay on phospho JNK1 (Western blot); assay type: biochemical; details: purified phospho-MAP kinase, 50 nM
T1 construct: His

pErk2-GST = assay: In vitro phosphatase assay on phospho-Erk2 (Western blot); details: purified protein, Western blot with anti phospho-Erk
NF-κB reporter construct = assay: TNF-α-induced NF-κB reporter construct in Caco 2 cells; assay type: cell-based, human; details: overexpression in Caco 2 cells
Source text: In addition to the classical MAPK-dependent target genes, OspF also repressed expression of some NF-κB-dependent chemokine genes such as IL-8. The IL-8 promoter contains an NF-κB binding site essential for expression of this gene (Hoffmann et al., 2002). Therefore, the inventors looked whether OspF interferes with the NF-κB signaling pathway. […] (FIG. 5E).

[3] = system: histone H3 phosphorylation at Ser 10 (H3 pS10); assay: H3 pS10 induced by okadaic acid in HeLa cells overexpressing OspF; assay type: cell-based; details: HeLa transfected with pRK5myc-OspF, 200 nM okadaic acid 3 hours
Description: as §1

phospho p38-GST = biological target: T2, phospho p38-GST (Homo sapiens, UniProt Q16539); assay: In vitro phosphatase assay on phospho p38 (Western blot); assay type: biochemical; details: purified phospho-MAP kinase, 50 nM
T2 construct: GST

p46 and p54 JNK kinases = assay: JNK phosphorylation in transfected HeLa cells stimulated by TNF; assay type: cell-based; details: TNF stimulation
p38 MAP kinases = assay: p38 phosphorylation in transfected HeLa cells stimulated by TNF; assay type: cell-based; details: TNF stimulation
endogenous Erk = assay: Erk phosphorylation in transfected HeLa cells stimulated by PMA; details: HeLa cells transfected with expression plasmid, PMA stimulation

T2 sequence (Q16539 whole entry): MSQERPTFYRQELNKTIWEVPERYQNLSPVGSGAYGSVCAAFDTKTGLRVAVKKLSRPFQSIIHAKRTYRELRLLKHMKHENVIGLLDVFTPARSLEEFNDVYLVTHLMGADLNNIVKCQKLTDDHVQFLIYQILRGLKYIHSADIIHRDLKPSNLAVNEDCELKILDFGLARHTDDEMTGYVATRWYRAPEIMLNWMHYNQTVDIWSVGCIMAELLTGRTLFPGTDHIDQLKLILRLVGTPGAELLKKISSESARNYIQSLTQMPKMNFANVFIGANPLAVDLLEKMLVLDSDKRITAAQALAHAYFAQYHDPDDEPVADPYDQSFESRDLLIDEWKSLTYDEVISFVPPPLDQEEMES
T1 sequence (P45983 whole entry): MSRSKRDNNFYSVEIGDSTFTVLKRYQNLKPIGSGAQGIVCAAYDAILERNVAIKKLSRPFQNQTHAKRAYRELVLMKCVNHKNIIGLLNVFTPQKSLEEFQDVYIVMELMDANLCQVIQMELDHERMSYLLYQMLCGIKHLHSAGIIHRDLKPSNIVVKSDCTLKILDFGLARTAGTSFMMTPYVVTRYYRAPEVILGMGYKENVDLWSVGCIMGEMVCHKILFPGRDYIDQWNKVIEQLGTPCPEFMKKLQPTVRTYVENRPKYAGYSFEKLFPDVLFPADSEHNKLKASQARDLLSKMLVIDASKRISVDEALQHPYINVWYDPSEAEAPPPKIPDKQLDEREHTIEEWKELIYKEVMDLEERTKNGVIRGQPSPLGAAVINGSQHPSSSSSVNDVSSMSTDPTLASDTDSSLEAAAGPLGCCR

C[S+]([O-])c1ccc(-c2nc(-c3ccc(F)cc3)c(-c3ccncc3)[nH]2)cc1 (stereo not shown) [SB 203180]
H3 pS10 signal induced by the ospF strain [1]: fully inhibited

N#CC(=C(/N)Sc1ccccc1N)/C(C#N)=C(\N)Sc1ccccc1N [U0126]
H3 pS10 signal induced by the ospF strain [1]: fully inhibited

B1: MKP1: known mammalian dual specific phosphatase used as a control (protein, UniProt P28562 1-367, looked up)
Dual specificity protein …: MVMEVGTLDAGGLRALLGERAAQCLLLDCRSFFAFNAGHIAGSVNVRFSTIVRRRAKGAMGLEHIVPNAELRGRLLAGAYHAVVLLDERSAALDGAKRDGTLALAAGALCREARAAQVFFLKGGYEAFSASCPELCSKQSTPMGLSLPLSTSVPDSAESGCSSCSTPLYDQGGPVEILPFLYLGSAYHASRKDMLDALGITALINVSANCPNHFEGHYQYKSIPVEDNHKADISSWFNEAIDFIDSIKNAGGRVFVHCQAGISRSATICLAYLMRTNRVKLDEAFEFVKQRRSIISPNFSFMGQLLQFESQVLAPHCSAEAGSPAMAVLDRGTSTTTVFNFPVSIPVHSTNSALSYLQSPITTSPSC
kcat of Erk2 dephosphorylation (^33P-labeled Erk2): 0.0006 s⁻¹

B2: OspF: protein encoded by the Shigella ospF gene, a dual specific phosphatase; NCBI Accession CAC05773 (protein)
chain: MPIKKPCLKLNLDSLNVVRSEIPQMLSANERLKNNFNILYNQIRQYPAYYFKVASNVPTYSDICQSFSVMYQGFQIVNHSGDVFIHACRENPQSKGDFVGDKFHISIAREQVPLAFQILSGLLFSEDSPIDKWKITDMNRVSQQSRVGIGAQFTLYVKSDQECSQYSALLLHKIRQFIMCLESNLLRSKIAPGEYPASDVRPEDWKYVSYRNELRSDRDGSERQEQMLREEPFYRLMIE
IL-12 production in vivo (IL-12): down regulated | direct dephosphorylation of histone H3 (metK9-pS10 / pS10) [2]: did not directly dephosphorylate | dephosphorylation of phospho JNK1 (phospho JNK1 Histidine): failed to dephosphorylate | dephosphorylation of phospho-Erk2 (pErk2-GST): directly dephosphorylated | TNF-α-induced activation of NF-κB reporter (NF-κB reporter construct): did not impair | induction of H3 pS10 by okadaic acid [3]: efficiently prevented induction | dephosphorylation of phospho p38 (phospho p38-GST): directly dephosphorylated | Vmax of Erk2 dephosphorylation (^33P-labeled Erk2): 9.89 pM/s | kcat of Erk2 dephosphorylation (^33P-labeled Erk2): 0.0001 s⁻¹ | Km (^33P-labeled Erk2; read-out: Km of Erk2 dephosphorylation): 0.204 µM

B3: myc-labelled OspF: OspF with a myc label expressed from plasmid pRK5myc-OspF (protein)
chain: MPIKKPCLKLNLDSLNVVRSEIPQMLSANERLKNNFNILYNQIRQYPAYYFKVASNVPTYSDICQSFSVMYQGFQIVNHSGDVFIHACRENPQSKGDFVGDKFHISIAREQVPLAFQILSGLLFSEDSPIDKWKITDMNRVSQQSRVGIGAQFTLYVKSDQECSQYSALLLHKIRQFIMCLESNLLRSKIAPGEYPASDVRPEDWKYVSYRNELRSDRDGSERQEQMLREEPFYRLMIE
modifications: left off: small tags and cut ends
effect on JNK phosphorylation in cells (p46 and p54 JNK kinases): not | effect on p38 phosphorylation in cells (p38 MAP kinases): prevented phosphorylation | effect on Erk phosphorylation / ability to dephosphorylate Erk in cells (endogenous Erk): prevented phosphorylation
